Laboratory results as given in patent publication US20090148905A1 (published 2009).

T1: human IL-4 (human, UniProt P05112 25-153)
T1 construct: E. coli-expressed, made and purified at GSK; also called rhIL-4; recombinant E. coli-expressed human IL-4
T1 sequence: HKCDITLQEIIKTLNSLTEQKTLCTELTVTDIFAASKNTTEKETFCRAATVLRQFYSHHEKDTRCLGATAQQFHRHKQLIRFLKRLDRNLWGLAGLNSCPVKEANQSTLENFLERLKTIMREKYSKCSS


What was measured:
human IL-13 = molecular target: T2, human IL-13 (human, UniProt P35225 35-146)
T2 construct: E. coli-expressed, made and purified at GSK; also called rhIL-13; recombinant E. coli-expressed human IL-13

human IL-4 = molecular target: T1, human IL-4; test: Biacore

Row | Binder | Kd (human IL-13) [nM] | fold less potent than Pascolizumab (human IL-4) [fold]
1 | Anti-human IL-13 monoclonal antibody (also known as 586) (antibody, human IgG1, kappa, humanised, human IgG1/kappa; also called Anti-human IL-13 mAb; anti-IL13 mAb) heavy: not shown light: DIVMTQSPLSLPVTPGEPASISCRSSQNIVHINGNTYLEWYLQKPGQSPRLLIYKISDRFSGVPDRFSGSGSGTDFTLKISRVEADDVGIYYCFQGSHVPWTFGQGTKLEIKRTVAAPSVFIFPPSDEQLKSGTASVVCLLNNFYPREAKVQWKVDNALQSGNSQESVTEQDSKDSTYSLSSTLTLSKADYEKHKVYACEVTHQGLSSPVTKSFNRGEC | 0.3 | 
2 | PascoL-EPKSC-474 (bispecific antibody, human IgG1, kappa) heavy: not shown light: DIVLTQSPSSLSASVGDRVTITCKASQSVDYDGDSYMNWYQQKPGKAPKLLIYAASNLESGIPSRFSGSGSGTDFTFTISSLQPEDIATYYCQQSNEDPPTFGQGTKVEIKRTVAAPSVFIFPPSDEQLKSGTASVVCLLNNFYPREAKVQWKVDNALQSGNSQESVTEQDSKDSTYSLSSTLTLSKADYEKHKVYACEVTHQGLSSPVTKSFNRGECEPKSCDKTHTCPPCPGSGVQLLESGGGLVQPGGSLRLSCAASGFTFAWYDMGWVRQAPGKGLEWVSSIDWHGEVTYYADSVKGRFTISRDNSKNTLYLQMNSLRAEDTAVYYCATAEDEPGYDYWGQGTLVTVSS |  | ~2
